Experimental data as given in patent US20120219562A1 (AbbVie / Abbott, published 2012).

T1: human interleukin 12 (human, UniProt P29459 23-219; P29460 23-328)
T1 construct: heterodimer of p35 and p40 linked by a disulfide bridge; also called hIL-12; IL-12
T1 sequence (looked up) 1: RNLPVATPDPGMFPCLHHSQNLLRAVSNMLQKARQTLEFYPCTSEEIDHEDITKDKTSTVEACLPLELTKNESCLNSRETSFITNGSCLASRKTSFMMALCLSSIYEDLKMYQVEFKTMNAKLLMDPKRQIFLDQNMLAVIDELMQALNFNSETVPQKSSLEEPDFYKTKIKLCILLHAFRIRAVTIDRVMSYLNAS
T1 sequence (looked up) 2: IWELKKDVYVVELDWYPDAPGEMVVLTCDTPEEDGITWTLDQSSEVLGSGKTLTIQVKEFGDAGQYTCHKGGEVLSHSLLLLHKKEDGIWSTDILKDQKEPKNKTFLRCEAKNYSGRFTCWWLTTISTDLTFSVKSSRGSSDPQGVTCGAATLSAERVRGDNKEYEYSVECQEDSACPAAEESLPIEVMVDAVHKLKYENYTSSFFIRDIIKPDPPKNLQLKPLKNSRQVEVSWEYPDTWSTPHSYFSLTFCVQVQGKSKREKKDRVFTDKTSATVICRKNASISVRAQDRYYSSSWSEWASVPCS


Biological target: T1, human interleukin 12
Assay: SPR (BIAcore)

Row | koff [s⁻¹] | Binder
1 | 0.00389 | 170-21 (antibody, V domains shown) VH: QVQLVQSGGGVVQPGRSLRLSCAASGFTFSSYGMHWVRQAPGKGLEWVAFIRYDGSNKYYADSVKGRFTISRDNSKNTLYLQMKSLRAEDTAVYYCTTHGSQDNWGQGTMVTVSS VL: SYVLTQPPSVSGTPGQRVTISCSGGRSNIGSNTVKWYQQLPGTAPKLLIYGNDQRPSGVPDRFSGSKSGTSASLAITGVQAEDEADYYCQSYDRGFTGPRLFGTGTKVTVL
2 | 0.00417 | 73-E6 (antibody, V domains shown) VH: QVQLVQSGGGVVQPGRSLRLSCAASGFTFSSYGMHWVRQAPGKGLEWVAFIRYDGSNKYYADSVKGRFTISRDNSKNTLYLQMKSLRAEDTAVYYCTTSGSYDYWGQGTMVTVSS VL: SYVLTQPPSVSGTPGQRVTISCSGGRSNIGSNTVKWYQQLPGTAPKLLIYGNDQRPSGVPDRFSGSKSGTSASLAITGVQAEDEADYYCHSYESGFTGSRVFGTGTKVTVLG
3 | 0.00498 | 73-E3 (antibody, V domains shown) VH: QVQLVQSGGGVVQPGRSLRLSCAASGFTFSSYGMHWVRQAPGKGLEWVAFIRYDGSNKYYADSVKGRFTISRDNSKNTLYLQMKSLRAEDTAVYYCTTSGSYDYWGQGTMVTVSS VL: SYVLTQPPSVSGTPGQRVTISCSGGRSNIGSNTVKWYQQLPGTAPKLLIYGNDQRPSGVPDRFSGSKSGTSASLAITGVQAEDEADYYCQSYDSDFTGSRVFGTGTKVTVLG

Further lines, the binder ahead of its results:

Row | Binder | koff [s⁻¹]
4 | 73-C2 (antibody, V domains shown) VH: QVQLVQSGGGVVQPGRSLRLSCAASGFTFSSYGMHWVRQAPGKGLEWVAFIRYDGSNKYYADSVKGRFTISRDNSKNTLYLQMKSLRAEDTAVYYCTTSGSYDYWGQGTMVTVSS VL: SYVLTQPPSVSGTPGQRVTISCSGGRSNIGSNTVKWYQQLPGTAPKLLIYGNDQRPSGVPDRFSGSKSGTSASLAITGVQAEDEADYYCQSYDSEFTGSRVFGTGTKVTVLG | 0.00379
5 | 73-B2 (antibody, V domains shown) VH: QVQLVQSGGGVVQPGRSLRLSCAASGFTFSSYGMHWVRQAPGKGLEWVAFIRYDGSNKYYADSVKGRFTISRDNSKNTLYLQMKSLRAEDTAVYYCTTSGSYDYWGQGTMVTVSS VL: SYVLTQPPSVSGTPGQRVTISCSGGRSNIGSNTVKWYQQLPGTAPKLLIYGNDQRPSGVPDRFSGSKSGTSASLAITGVQAEDEADYYCHSSESGFTGSRVFGTGTKVTVLG | 0.00207
6 | 73-D1 (antibody, V domains shown) VH: QVQLVQSGGGVVQPGRSLRLSCAASGFTFSSYGMHWVRQAPGKGLEWVAFIRYDGSNKYYADSVKGRFTISRDNSKNTLYLQMKSLRAEDTAVYYCTTSGSYDYWGQGTMVTVSS VL: SYVLTQPPSVSGTPGQRVTISCSGGRSNIGSNTVKWYQQLPGTAPKLLIYGNDQRPSGVPDRFSGSKSGTSASLAITGVQAEDEADYYCHSYDSGFTGSRVFGTGTKVTVLG | 0.00399
7 | 73-D5 (antibody, V domains shown) VH: QVQLVQSGGGVVQPGRSLRLSCAASGFTFSSYGMHWVRQAPGKGLEWVAFIRYDGSNKYYADSVKGRFTISRDNSKNTLYLQMKSLRAEDTAVYYCTTSGSYDYWGQGTMVTVSS VL: SYVLTQPPSVSGTPGQRVTISCSGGRSNIGSNTVKWYQQLPGTAPKLLIYGNDQRPSGVPDRFSGSKSGTSASLAITGVQAEDEADYYCHSSDSGFTGSRVFGTGTKVTVLG | 0.00357
8 | 73-D4 (antibody, V domains shown) VH: QVQLVQSGGGVVQPGRSLRLSCAASGFTFSSYGMHWVRQAPGKGLEWVAFIRYDGSNKYYADSVKGRFTISRDNSKNTLYLQMKSLRAEDTAVYYCTTSGSYDYWGQGTMVTVSS VL: SYVLTQPPSVSGTPGQRVTISCSGGRSNIGSNTVKWYQQLPGTAPKLLIYGNDQRPSGVPDRFSGSKSGTSASLAITGVQAEDEADYYCHSYDTKFTGSRVFGTGTKVTVLG | 0.00536
9 | 73-C6 (antibody, V domains shown) VH: QVQLVQSGGGVVQPGRSLRLSCAASGFTFSSYGMHWVRQAPGKGLEWVAFIRYDGSNKYYADSVKGRFTISRDNSKNTLYLQMKSLRAEDTAVYYCTTSGSYDYWGQGTMVTVSS VL: SYVLTQPPSVSGTPGQRVTISCSGGRSNIGSNTVKWYQQLPGTAPKLLIYGNDQRPSGVPDRFSGSKSGTSASLAITGVQAEDEADYYCQSYDTGFTGSRVFGTGTKVTVLG | 0.00396
